Literature values as cited in PMC3064480.

Target: TβRII ED (Homo sapiens) (UniProt P37173)
Test: SPR

Chain of TGF-β1 (P01137 279-390): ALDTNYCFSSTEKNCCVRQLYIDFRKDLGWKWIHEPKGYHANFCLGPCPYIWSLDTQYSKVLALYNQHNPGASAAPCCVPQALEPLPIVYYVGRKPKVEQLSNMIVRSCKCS
Chain of TβRII ED (Homo sapiens) (P37173 23-166): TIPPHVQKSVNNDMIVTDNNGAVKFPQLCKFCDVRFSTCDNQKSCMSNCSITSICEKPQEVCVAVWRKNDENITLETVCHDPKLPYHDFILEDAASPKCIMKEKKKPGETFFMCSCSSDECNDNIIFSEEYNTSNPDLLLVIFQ

Kd: 5 pM
Substance: TGF-β1 (from UniProt P01137)
